Measured values as given in patent US20110256153A1 (IMMUNOGEN, published 2011).

Columns and labels:
human CD37 = molecular target: T1, human CD37 (human, UniProt P11049 1-278); experiment: flow cytometry titration on BJAB cells; apparent Kd
T1 construct: Tetraspanin antigen; Expressed on 300-19 cells transfected with pSRa-CD37 (entire CDS) or endogenous on WSU-DLCL-2, BJAB and Ramos lymphoma cells; also called CD37 antigen; human CD37 wildtype
T1 sequence: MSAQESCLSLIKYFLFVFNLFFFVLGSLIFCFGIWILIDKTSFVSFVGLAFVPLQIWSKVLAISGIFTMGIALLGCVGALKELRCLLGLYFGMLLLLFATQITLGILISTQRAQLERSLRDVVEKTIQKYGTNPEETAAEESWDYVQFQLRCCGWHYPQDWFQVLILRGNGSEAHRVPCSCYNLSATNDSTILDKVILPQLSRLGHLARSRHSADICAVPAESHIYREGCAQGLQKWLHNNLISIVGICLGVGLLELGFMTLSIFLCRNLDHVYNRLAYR
In short: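 BJAB cells were incubated 3 h with titrated antibody in RPMI-1640 containing 2% goat serum, then 1 h with FITC anti-mouse or anti-human IgG, fixed in 1% formaldehyde and read by flow cytometry. Apparent Kd was derived by non-linear regression of the dose-response curves.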

hCD37-M3 = molecular target: T2, hCD37-M3 (human/murine chimera, UniProt P11049 1-281); experiment: flow cytometry, 300-19 cells expressing hCD37-M3, 1.5 µg/mL antibody
T2 construct: stably expressed on 300-19 cells; also called hCD37-M3 variant
T2 chain: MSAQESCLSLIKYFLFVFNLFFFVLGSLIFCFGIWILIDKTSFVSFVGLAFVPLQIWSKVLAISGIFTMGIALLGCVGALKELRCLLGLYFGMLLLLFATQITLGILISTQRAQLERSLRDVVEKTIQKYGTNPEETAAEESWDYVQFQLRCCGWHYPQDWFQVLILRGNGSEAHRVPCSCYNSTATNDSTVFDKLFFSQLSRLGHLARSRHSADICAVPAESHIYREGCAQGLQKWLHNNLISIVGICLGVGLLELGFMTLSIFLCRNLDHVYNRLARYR
Description: Binding specificity was tested by flow cytometry using purified antibodies. […] All murine antibodies were incubated for 3 h with either CD37-expressing 300-19 cells or the non-transfected 300-19 cells (1×10⁵ cells per sample) in 100 μL FACS buffer (RPMI-1640 medium supplemented with 2% normal goat serum). Then, the cells were pelleted, washed, and incubated for 1 h with 100 μL of FITC-conjugated goat anti-mouse IgG-antibody (Jackson Laboratory, 6 μg/mL in FACS buffer). The cells were pelleted again, washed with FACS buffer and resuspended in 200 μL of PBS containing 1% formaldehyde. Samples were acquired using a FACSCalibur flow cytometer with the HTS multiwell sampler or a FACS array flow cytometer and analyzed using CellQuest Pro (all from BD Biosciences, San Diego, US).
Binding of various CD37 antibodies to cells expressing human CD37 wildtype and variants was analyzed by flow cytometry using 1.5 μg/mL of each antibody. The isolated antibodies of this invention were compared to commercially available CD37 antibody WR17, as well as the TRU-016 SMIP. […] Likewise, all antibodies tested bound the hCD37-M3 variant (FIG. 18B). In contrast, the isolated antibodies of this invention bound the hCD37-M1 variant, while TRU-016 and WR17 were unable to bind hCD37-M1 variant (FIG. 19A). The CD37-50 and CD37-51 antibodies and TRU-016 were also able to bind the hCD37-M45 variant. […] In contrast, the CD37-3, CD37-12, CD37-38, CD37-56 and CD37-57 antibodies require at least one of the AA residues in the hCD37-M45 variant that were changed to the corresponding murine AA residues for binding to the CD37 antigen.

macaque CD37 = molecular target: T3, macaque CD37 (macaque, UniProt P11049 1-277 (human entry)); experiment: flow cytometry, 300-19/CD37mac cells
T3 construct: Expressed on 300-19 cells transfected with pSRa-CD37mac (300-19/CD37mac cells); also called macaca CD37; macaque derived CD37 antigen
T3 chain: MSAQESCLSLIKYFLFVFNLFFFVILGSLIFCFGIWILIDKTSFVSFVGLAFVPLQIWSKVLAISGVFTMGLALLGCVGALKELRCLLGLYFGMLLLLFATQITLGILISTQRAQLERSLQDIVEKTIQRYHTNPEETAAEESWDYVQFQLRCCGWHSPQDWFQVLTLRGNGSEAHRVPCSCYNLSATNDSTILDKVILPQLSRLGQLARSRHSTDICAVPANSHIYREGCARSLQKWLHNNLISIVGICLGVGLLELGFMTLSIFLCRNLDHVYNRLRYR
In short: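 300-19 cells transfected with macaque CD37, alongside non-transfected 300-19 cells (1×10⁵ per sample), incubated 3 h with purified antibodies in RPMI-1640 with 2% normal goat serum. Bound antibody detected with FITC-conjugated anti-mouse or anti-human secondary for 1 h. Cells fixed in 1% formaldehyde before flow cytometry.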

Kd (human CD37): 200 pM
binding result (hCD37-M3): binds
binding result (macaque CD37): no binding
B1: muCD37-3 (antibody, mouse IgG2a, kappa)
heavy: QVQVKESGPGLVAPSQSLSITCTVSGFSLTTSGVSWVRQPPGKGLEWLGVIWGDGSTNYHSALKSRLSIKKDHSKSQVFLKLNSLQTDDTATYYCAKGGYSLAHWGQGTLVTVSAAKTTAPSVYPLAPVCGDTTGSSVTLGCLVKGYFPEPVTLTWNSGSLSSGVHTFPAVLQSDLYTLSSSVTVTSSTWPSQSITCNVAHPASSTKVDKKIEPRGPTIKPCPPCKCPAPNLLGGPSVFIFPPKIKDVLMISLSPIVTCVVVDVSEDDPDVQISWFVNNVEVHTAQTQTHREDYNSTLRVVSALPIQHQDWMSGKEFKCKVNNKDLPAPIERTISKPKGSVRAPQVYVLPPPEEEMTKKQVTLTCMVTDFMPEDIYVEWTNNGKTELNYKNTEPVLDSDGSYFMYSKLRVEKKNWVERNSYSCSVVHEGLHNHHTTKSFSRTPGK
light: DIQMTQSPASLSVSVGETVTITCRASENIRSNLAWYQQKQGKSPQLLVNVATNLADGVPSRFSGSGSGTQYSLKINSLQSEDFGTYYCQHYWGTTWTFGGGTKLEIKRADAAPTVSIFPPSSEQLTSGGASVVCFLNNFYPKDINVKWKIDGSERQNGVLNSWTDQDSKDSTYSMSSTLTLTKDEYERHNSYTCEATHKTSTSPIVKSFNRNEC
notes: Murine hybridoma antibody; also called murine CD37-3 antibody; muCD37-3-PE
